Target: HHARI full-length (residues 1-557) (UniProt Q9Y4X5)
Test: ITC; nanoITC, 25 °C, 50 mM NaCl, 10 mM Na2HPO4, 2 mM KH2PO4 pH 7.0; 200 μM UbcH7 proteins injected into 20 μM HHARI full length; 500 μM UbcH5b proteins into 50 μM HHARI full length

HHARI full-length (residues 1-557), sequence (Q9Y4X5 whole entry, the tested form may be a part): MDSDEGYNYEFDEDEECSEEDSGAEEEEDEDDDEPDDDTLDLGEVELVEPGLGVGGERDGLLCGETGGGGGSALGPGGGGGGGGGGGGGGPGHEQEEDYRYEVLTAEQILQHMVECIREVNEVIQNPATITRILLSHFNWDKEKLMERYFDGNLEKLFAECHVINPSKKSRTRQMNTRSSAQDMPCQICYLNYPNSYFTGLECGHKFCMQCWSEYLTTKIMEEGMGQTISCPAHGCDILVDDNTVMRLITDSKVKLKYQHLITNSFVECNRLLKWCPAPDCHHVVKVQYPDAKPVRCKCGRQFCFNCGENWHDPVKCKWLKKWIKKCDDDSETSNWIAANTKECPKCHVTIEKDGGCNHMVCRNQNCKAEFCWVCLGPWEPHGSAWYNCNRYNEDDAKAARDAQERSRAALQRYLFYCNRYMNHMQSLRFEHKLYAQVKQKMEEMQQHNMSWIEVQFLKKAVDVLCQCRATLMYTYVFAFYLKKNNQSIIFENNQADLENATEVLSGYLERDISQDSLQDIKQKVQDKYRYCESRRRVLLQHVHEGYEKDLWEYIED
UbcH5b wild type, sequence (P62837 whole entry): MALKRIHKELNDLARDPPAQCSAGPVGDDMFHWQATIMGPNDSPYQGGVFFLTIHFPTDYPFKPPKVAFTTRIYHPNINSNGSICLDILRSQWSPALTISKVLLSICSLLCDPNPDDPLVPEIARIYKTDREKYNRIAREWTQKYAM

## UbcH5b wild type (from UniProt P62837 1-147) (enzyme; other documents disagree on this pair)
  Kd: 19.5 µM

Source: publication PMC5548887
